Reference: PMC11059514 (Molecular Metabolism, 2024)

Target: T1, PPARα bait (pCLG-PPARα), full-length PPARα fused to a mutant leptin receptor (UniProt Q07869 1-468)
T1 sequence: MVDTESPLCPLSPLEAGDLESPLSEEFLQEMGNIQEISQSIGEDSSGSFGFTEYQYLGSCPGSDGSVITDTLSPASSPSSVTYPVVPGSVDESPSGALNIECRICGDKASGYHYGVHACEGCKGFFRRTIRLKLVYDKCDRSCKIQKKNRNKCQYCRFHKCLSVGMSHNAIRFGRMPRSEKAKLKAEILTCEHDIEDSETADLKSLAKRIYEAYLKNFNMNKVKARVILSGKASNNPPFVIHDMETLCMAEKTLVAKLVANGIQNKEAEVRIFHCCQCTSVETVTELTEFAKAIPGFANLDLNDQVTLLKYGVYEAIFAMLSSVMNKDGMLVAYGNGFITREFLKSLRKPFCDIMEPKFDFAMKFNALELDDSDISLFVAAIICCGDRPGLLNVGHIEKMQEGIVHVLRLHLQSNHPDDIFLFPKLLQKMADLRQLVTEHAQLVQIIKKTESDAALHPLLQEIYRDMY
Assay: two-hybrid

- fold increase of the MAPPIT signal on serum starvation: ~3 fold
B1: ERRα prey (pMG1-ERRα), full-size ERRα ORF coupled to gp130 (natural protein)
chain: MSSQVVGIEPLYIKAEPASPDSPKGSSETETEPPVALAPGPAPTRCLPGHKEEEDGEGAGPGEQGGGKLVLSSLPKRLCLVCGDVASGYHYGVASCEACKAFFKRTIQGSIEYSCPASNECEITKRRRKACQACRFTKCLRVGMLKEGVRLDRVRGGRQKYKRRPEVDPLPFPGPFPAGPLAVAGGPRKTAAPVNALVSHLLVVEPEKLYAMPDPAGPDGHLPAVATLCDLFDREIVVTISWAKSIPGFSSLSLSDQMSVLQSVWMEVLVLGVAQRSLPLQDELAFAEDLVLDEEGARAAGLGELGAALLQLVRRLQALRLEREEYVLLKALALANSDSVHIEDAEAVEQLREALHEALLEYEAGRAGPGGGAERRRAGRLLLTLPLLRQTAGKVLAHFYGVKLEGKVPMHKLFLEMLEAMMD
